How the values were obtained:
[1] = target: BG505 DS-SOSIP.664 Env trimer (HIV-1); test: ITC, 37 C, PBS pH 7.4, nanobody titrated into trimer
[2] = target: CAP256 soluble Env trimer (clade C), stabilized in the prefusion-closed conformation (HIV-1); test: ELISA, lectin-captured trimer, expression supernatant, single point, OD 450 nm
[3] = target: K169V variant of CAP256 soluble Env trimer (HIV-1); test: as above
[4] = target: JRFL soluble Env trimer (clade B), stabilized in the prefusion-closed conformation (HIV-1); test: as above
[5] = target: 426C-WITO soluble Env trimer (clade B), stabilized in the prefusion-closed conformation (HIV-1); test: ELISA, lectin-captured trimer, expression supernatant, single point, OD 450 nm, column 426c-WITO-degly3
[6] = target: BG505 DS-SOSIP.664 Env trimer (HIV-1); test: ITC, 37 C, PBS pH 7.4, antibody titrated into trimer

Binder	-TΔS [1] [kcal/mol]	Kd [1] [nM]	N (stoichiometry) (Antigen Binding Sites per Trimer) [1]	ΔG [1] [kcal/mol]	ΔH [1] [kcal/mol]	ELISA binding [2]	ELISA binding [3]	ELISA binding [4]	ELISA binding [5]	-TΔS [6] [kcal/mol]	Kd [6] [nM]	N (stoichiometry) (Antigen Binding Sites per Trimer) [6]	ΔG [6] [kcal/mol]	ΔH [6] [kcal/mol]
J3 nanobody (VHH) VHH: EVQLVESGGGLVQAGGFLRLSCELRGSIFNQYAMAWFRQAPGKEREFVAGMGAVPHYGEFVKGRFTISRDNAKSTVYLQMSSLKPEDTAIYFCARSKSTYISYNSNGYDYWGRGTQVTVSS	1.4	92	3.1	-10	-11.4									
CAP256V2LS (antibody, V domains shown) VH: QVQLVESGGGVVQPGTSLRLSCAASQFRFDGYGMHWVRQAPGKGLEWVASISHDGIKKYHAEKVWGRFTISRDNSKNTLYLQMNSLRPEDTALYYCAKDLREDECEEWWSDYYDFGAQLPCAKSRGGLVGIADNWGQGTMVTVSS VL: QSVLTQPPSVSAAPGQKVTISCSGNTSNIGNNFVSWYQQRPGRAPQLLIYETDKRPSGIPDRFSASKSGTSGTLAITGLQTGDEADYYCATWAASLSSARVFGTGTQVIVLG						2.16	2.42	0.361	0.382	15	34	1	-10.6	-25.6
